Where “and” joins values, the source holds several entries; their conditions need not be identical. Identical values can stand only once.
Legend:
[1] = target: T1, PF4/heparin complex (human PF4 complexed with heparin) (human, UniProt P02776 32-101); test: BLI (Octet), biotinylated PF4/heparin on streptavidin sensors, scFv 1 µg/mL, 1:1 model
T1 construct: Multimeric complex of PF4 with heparin (not a protein); In the EIAs: PF4 captured on biotinylated heparin on streptavidin plates; In the SRA: platelets with 0.2 U/mL heparin; also called PF4 and heparin complexes
T1 sequence: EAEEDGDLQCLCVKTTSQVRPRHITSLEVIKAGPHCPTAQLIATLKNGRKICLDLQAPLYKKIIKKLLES
Description: (§1) The Octet-QK Red 96 (FortéBio, Menlo Park, CA) instrumentation was used to conduct all BLI experiments. A 96-well microtiter plate (black, flat-bottom) was used to hold 200 μL per well of either sample or buffer. Pre-coated streptavidin biosensor tips (FortéBio) were hydrated in phosphate buffered saline (PBS) containing 1% bovine serum albumin (BSA, Sigma-Aldrich) before performing all kinetic assays. Each step was performed at an operating temperature of 23° C. with agitation at 1000 rpm. Streptavidin tips were first equilibrated in PBS+1% BSA to establish a baseline. […] The PF4-coated tips were then dipped into PBS+1% BSA for 13 minutes to re-establish a baseline. Tips were then incubated in an analyte solution containing half-fold dilutions of wildtype scFv (4.0, 2.0, 1.0, 0.5, 0.25 μg/mL in PBS+1% BSA) for 10 minutes to measure association. For mutant scFv association, tips were incubated in an analyte solution containing 200 μL of each mutant and wildtype scFv at a final concentration of 1 μg/mL in PBS+1% BSA. Antibody dissociation steps were performed by dipping sensors in wells containing PBS+1% BSA for 56 minutes. The following negative controls included in these kinetic experiments were also measured: 200 μL of buffer to replace both the antigen and scFv and 200 μL buffer replacing scFv only. Each experiment was performed with PF4 or with PF4/heparin as the immobilized antigen.
(§2) BLI experiments were performed to evaluate binding responses and affinities of wildtype and mutant scFv. Biotinylated PF4 alone or complexed with heparin was immobilized on streptavidin biosensors and used to capture wildtype scFv. Half-fold serial dilutions of wildtype scFv ranging from 0.25 μg/mL to 4 μg/mL were used to determine the optimal concentrations for future experiments PF4 (PF4 FIG. 3; PF4/heparin FIG. 4).

[2] = target: T2, Human PF4 (CXCL4), biotinylated, without heparin (human, UniProt P02776 32-101, biotinylated with EZ-link-Sulfo-NHS-LC-Biotin (sites not given)); test: BLI (Octet), biotinylated PF4 without heparin on streptavidin sensors, scFv 1 µg/mL, 1:1 model
T2 construct: Immobilised on streptavidin biosensors for BLI; also called PF4 alone; platelet factor 4
T2 sequence: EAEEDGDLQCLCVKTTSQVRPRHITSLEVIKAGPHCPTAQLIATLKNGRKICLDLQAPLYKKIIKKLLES
Description: as §1, §2

[3] = target: T2, Human PF4 (CXCL4), biotinylated, …; test: BLI (Octet), biotinylated PF4 without heparin on streptavidin sensors, scFv at 1 µg/mL, 1:1 model, mean ± s.d. [cont.) b]
Description: BLI experiments were performed using wildtype scFv, mutant B, mutant C, mutant D, mutant E, and mutant F at 1 μg/mL. Binding was measured against immobilized biotinylated PF4 on streptavidin biosensors. b) Table showing kinetic data of wildtype and mutant scFv, including binding responses and association and dissociation rates. All data was analyzed based on a 1:1 homogenous ligand binding model using Octet® User Software version 3.1.
as §1
BLI experiments were performed to evaluate binding responses and affinities of wildtype and mutant scFv. Biotinylated PF4 alone or complexed with heparin was immobilized on streptavidin biosensors and used to capture wildtype scFv.

[4] = target: T1, PF4/heparin complex (human PF4 …); test: competition EIA on PF4/biotinylated heparin, scFv 0-160 µg/mL; competitor full-length KKO 2 µg/mL
Description: Inhibitory PF4/heparin IgG-specific Streptavidin Enzyme Immunoassay (EIA). The binding activity of wildtype and mutant scFv antibodies to PF4/heparin complexes was measured using an inhibitory PF4/heparin IgG-specific EIA with a streptavidin-biotin capture system. Before performing this protocol, 96-well NUNC Maxisorp plates (ThermoFisher) were coated with 10 μg/mL streptavidin for 24 h. Plates were then blocked with 3% bovine serum albumin (BSA) in phosphate buffered saline (PBS) for 2 h at room temperature. Plates were then coated with 1 U/mL biotinylated-heparin for 1 h followed by 30 μg/mL PF4 for 1 h. Increasing concentrations of wildtype or mutant scFv were added and incubated for 1 hr at room temperature. Without removing wildtype or scFv, HIT patient sera in a 1:50 dilution or full-length KKO (2 μg/mL) was then incubated for 1 h at room temperature. After washing, alkaline phosphatase-conjugated anti-human or anti-mouse IgG (Jackson Immuno Research Laboratories, Inc., West Grove, PA) was added at a 1:4000 dilution and incubated for 1 h temperature. For detection, 1 mg/mL p-nitrophenylphosphate (PNPP, Sigma-Aldrich) substrate dissolved in 1 mol/L diethanolamine (DEA) buffer (pH 9.6) was added. The optical density (OD) was measured at 2 min intervals for 30 min at 405 nm (OD₄₀₅ₙₘ) using a BioTek 800 TS plate reader (BioTek Instruments Inc., Winooski, VT) to determine if anti-PF4/heparin antibody binding was inhibited. Results were reported as a decrease in OD (absorbance at 405 nm) from baseline levels.
To further evaluate the binding of mutant and wildtype scFv, their ability to inhibit full-length KKO from binding PF4/heparin complexes was assessed in a modified streptavidin-capture EIA. Biotinylated heparin was immobilized with PF4 on streptavidin-coated plates and incubated with KKO in the presence of scFv at half-fold serial dilutions from 0 to 160 μg/mL. […] Wildtype scFv and mutant C were unable to inhibit full-length KKO binding at these concentrations and IC50 values for these constructs were not calculated.

[5] = target: T1, PF4/heparin complex (human PF4 …); test: competition EIA, scFv 50 µg/mL; competitor HIT-negative sera antibodies, n=10
[6] = target: T1, PF4/heparin complex (human PF4 …); test: BLI (Octet), biotinylated PF4/heparin on streptavidin sensors, scFv 1 µg/mL
Description: as §1, §2

[7] = target: T1, PF4/heparin complex (human PF4 …); test: cell-based or functional assay

Binder	Kd [1]	Kd [2]	koff [3]	kon [3]	IC50 [4]	mean % inhibition of serum antibody binding [5]	average binding response (wavelength shift) [6]	% inhibition of 14C-serotonin release (SRA), HIT-Positive Patient #1 serum, scFv 50 µg/mL [7]	% inhibition of 14C-serotonin release (SRA), HIT-Positive Patient #1 serum, scFv 75 µg/mL [7]	% inhibition of 14C-serotonin release (SRA), HIT-Positive Patient #2 serum, scFv 50 µg/mL [7]	% inhibition of 14C-serotonin release (SRA), HIT-Positive Patient #2 serum, scFv 75 µg/mL [7]	% inhibition of 14C-serotonin release (SRA), HIT-Positive Patient #3 serum, scFv 50 µg/mL [7]	% inhibition of 14C-serotonin release (SRA), HIT-Positive Patient #3 serum, scFv 75 µg/mL [7]	% inhibition of 14C-serotonin release (SRA), HIT-Positive Patient #4 serum, scFv 50 µg/mL [7]	% inhibition of 14C-serotonin release (SRA), HIT-Positive Patient #4 serum, scFv 75 µg/mL [7]	% inhibition of 14C-serotonin release (SRA), HIT-Positive Patient #5 serum, scFv 50 µg/mL [7]	% inhibition of 14C-serotonin release (SRA), HIT-Positive Patient #5 serum, scFv 75 µg/mL [7]	also measured
Mutant B scFv, scFv(R18K, N152K, D180N) (scFv, VL-linker-VH; histidine-tagged, from E. coli BL21; also called Mut B; not shown: histidine tag from the pADL-22c vector) scFv: DIQMIQSQKFMSTSVGDKVTVTCKASQNVGTNVAWYQQKPGQSPNALIYSASYRYSGVPDRFTGSGSGTDFTLTITNVQSEDLADYFCQQYNSYPLTFGTGTKLDLKGGGGSGGGGSGGGGSVQLQQSGAELVKPGASVKLSCKASGYTFTKYFIYWVKQRPGQGLEWIGEINPRNGDTNFNEKFESRATLTVDKSSSTAYMQLSSLTSEDSAIYYCTRSPYGNNYGFTYWGQGTLVTVSA	1.36 nM	1.69 nM	5.07e-05 s⁻¹	30200 M⁻¹ s⁻¹	57.3 nM and 1.6 µg/mL	-31.4%	0.379 nm	71.1%	97.8%	71.8%	19.2%	6%	14.5%	7.8%	58.9%	90.3%	80.6%	fold change of KD against wildtype scFv [1]: 100 fold; fold change of KD against wildtype scFv [2]: 1000 fold; fold increase of binding response against wildtype scFv [6]: 4 fold
Mutant E scFv, scFv(Y156H, D180G, Q233P) (scFv, VL-linker-VH; histidine-tagged, from E. coli BL21; also called Mut E; not shown: histidine tag from the pADL-22c vector) scFv: DIQMIQSQKFMSTSVGDRVTVTCKASQNVGTNVAWYQQKPGQSPNALIYSASYRYSGVPDRFTGSGSGTDFTLTITNVQSEDLADYFCQQYNSYPLTFGTGTKLDLKGGGGSGGGGSGGGGSVQLQQSGAELVKPGASVKLSCKASGYTFTNYFIHWVKQRPGQGLEWIGEINPKNGDTGFNEKFESRATLTVDKSSSTAYMQLSSLTSEDSAIYYCTRSPYGNNYGFTYWGPGTLVTVSA	0.275 nM	0.954 nM	0.000124 s⁻¹	69300 M⁻¹ s⁻¹	293 nM and 8.2 µg/mL	-34%	0.0907 nm	14.4%	25.6%	9%	10.3%	14.5%	9.6%	6.7%	4.4%	47.2%	59.7%	fold stronger affinity than wildtype scFv [1]: 100 fold; fold stronger affinity than wildtype scFv [2]: 10000 fold
